Test results: patent US20260069689A1 (Regeneron, published 2026)
Where two headings read alike, the source gives them in different places.

Key:
SARS-COV-2 RBD-MMH [1] = target: SARS-COV-2 RBD-MMH (SARS-CoV-2); assay: SPR 37C, run with dissociation at pH 5.0
SARS-COV-2 RBD-MMH [2] = target: SARS-COV-2 RBD-MMH (SARS-CoV-2); assay: SPR 37C, run with dissociation at pH 7.4
[3] = target: T1, human FcγR3a 176Val allotype receptor (human, UniProt P08637 17-254); assay: cell-based or functional assay
[4] = target: T1, human FcγR3a 176Val allotype receptor; assay: cell-based or functional assay; remark: listed apart in the source
SARS-COV-2 RBD-MMH [5] = target: SARS-COV-2 RBD-MMH (SARS-CoV-2); assay: SPR 37C

| Binder | RBD.mmh Bound at pH 7.4 (RU) (SARS-COV-2 RBD-MMH [1]) | koff (SARS-COV-2 RBD-MMH [1]) | t½ (SARS-COV-2 RBD-MMH [1]) | RBD.mmh Bound at pH 7.4 (RU) (SARS-COV-2 RBD-MMH [2]) | koff (SARS-COV-2 RBD-MMH [2]) | EC50 (M), Jurkat/CD20/spike [3] | Fold induction, Jurkat CD20 [3] | Fold induction, Jurkat/CD20/spike [3] | EC50 (M), Jurkat/CD20/spike [4] | Fold induction, Jurkat CD20 [4] | Fold induction, Jurkat/CD20/spike [4] | t½ Ratio of pH 7.4 to pH 5.0 (SARS-COV-2 RBD-MMH [5]) |
| --- | --- | --- | --- | --- | --- | --- | --- | --- | --- | --- | --- | --- |
| mAb14256 (antibody) heavy: not shown light: QSVLTQPPSVSGAPGQRVTISCTGSSSNIGTHYDVHWYQQLPGTAPKLLIYGNSNRPSGVPDRFSGSKSGTSASLAITGLQAEDEADYYCQSFDNSLTAPYVFGTGTKVTVLGQPKAAPSVTLFPPSSEELQANKATLVCLISDFYPGAVTVAWKADSSPVKAGVETTTPSKQSNNKYAASSYLSLTPEQWKSHRSYSCQVTHEGSTVEKTVAPTECS | 54.1 RU | 0.00927 s⁻¹ | 72 s | 80.2 RU | 0.0111 s⁻¹ | 5.75e-10 M | 1.1 fold | 2 fold | 4.48e-10 M | 1 fold | 6.1 fold | 0.8 |
| mAb14257 (antibody) heavy: not shown light: QSVLTQPPSVSGAPGQRVTISCTGTSSNIGADFDVHWYQQFPGTAPKLLIYGHTNRPSGIPDRFSGSKSGTSASLAITGLQAEDEADYYCQSYDSSLSGSVVFGGGTKLTVLGQPKAAPSVTLFPPSSEELQANKATLVCLISDFYPGAVTVAWKADSSPVKAGVETTTPSKQSNNKYAASSYLSLTPEQWKSHRSYSCQVTHEGSTVEKTVAPTECS | 45.2 RU | 0.0172 s⁻¹ | 42 s | 82.3 RU | 0.00778 s⁻¹ | 2.63e-10 M | 1.2 fold | 2.2 fold | 2.39e-10 M | 1 fold | 8.8 fold | 2.1 |
